In US20020031761A1, “Binding moieties for human parvovirus B19” (priority 1998, published 2002):
Positions of bridges follow the written chain, without caps; N, C: chain ends. No end group written: not given here.

B1: TN9 isolate E03 (peptide, not shown: large carriers)
peptide: FCHLWWPFQCA
modifications: disulfide 2-10 (inferred); also: displayed on M13 phage, coat protein fusion and flanking residues not given here
notes: Tested as phage isolate displaying the peptide (TN9 library)
B2: TN9 isolate A06 (peptide, not shown: large carriers)
peptide: FCQLWWPFQCA
modifications: not fully specified (bridges); printed as Phe-Cys-Gln-Leu-Trp-Trp-Pro-Phe-Gln-Cys-Ala; cysteine pairing not given here
notes: Tested as phage isolate (TN9 library)
B3: TN9 isolate D01 (peptide, not shown: large carriers)
peptide: FCWLWPSSDCF
modifications: disulfide 2-10 (inferred); also: displayed on M13 phage, coat protein fusion and flanking residues not given here
notes: as for B1
B4: TN7 isolate E11 (peptide, not shown: large carriers)
peptide: FCRFWYGCHP
modifications: disulfide 2-8 (inferred); also: displayed on M13 phage, coat protein fusion and flanking residues not given here
notes: Tested as phage isolate displaying the peptide (TN7 library); First template position printed as '-' (10 residues)
B5: TN9 isolate F01 (peptide, not shown: large carriers)
peptide: LCPAHWQFWCD
modifications: disulfide 2-10 (inferred); also: displayed on M13 phage, coat protein fusion and flanking residues not given here
notes: as for B1
B6: H03-TN9 phage isolate (peptide, not shown: large carriers)
peptide: FCWLWPAHSCH
modifications: disulfide 2-10 (inferred); also: displayed on M13 phage, coat protein fusion and flanking residues not given here
notes: Tested as phage isolate displaying the peptide (TN9 library); The synthetic peptide form is a separate molecule; also called TN9 isolate H03
B7: TN8 isolate D06 (peptide, not shown: large carriers)
peptide: HFCHFWFGGCPH
modifications: disulfide 3-10 (inferred); also: displayed on M13 phage, coat protein fusion and flanking residues not given here
notes: Tested as phage isolate displaying the peptide (TN8 library)
B8: TN7 isolate A07 (peptide, not shown: large carriers)
peptide: FFCGFWHDCHP
modifications: disulfide 3-9 (inferred); also: displayed on M13 phage, coat protein fusion and flanking residues not given here
notes: Tested as phage isolate displaying the peptide (TN7 library)
B9: TN7 isolate C11 (peptide, not shown: large carriers)
peptide: FFCQYWYNCD
modifications: disulfide 3-9 (inferred); also: displayed on M13 phage, coat protein fusion and flanking residues not given here
notes: Tested as phage isolate displaying the peptide (TN7 library); Last template position printed as '-' (10 residues)
B10: TN8 isolate A05 (peptide, not shown: large carriers)
peptide: AFCHFWFHGCDD
modifications: disulfide 3-10 (inferred); also: displayed on M13 phage, coat protein fusion and flanking residues not given here
notes: as for B7
B11: A01-TN8 phage isolate (peptide, not shown: large carriers)
peptide: FFCSFWHGGCDD
modifications: disulfide 3-10 (inferred); also: displayed on M13 phage, coat protein fusion and flanking residues not given here
notes: Tested as phage isolate displaying the peptide (TN8 library); The synthetic peptide form is a separate molecule; also called TN8 isolate A01
B12: TN7 isolate B11 (peptide, not shown: large carriers)
peptide: FFCALWPSCHH
modifications: disulfide 3-9 (inferred); also: displayed on M13 phage, coat protein fusion and flanking residues not given here
notes: as for B8
B13: TN7 isolate H09 (peptide, not shown: large carriers)
peptide: LFCRFWYNCSA
modifications: disulfide 3-9 (inferred); also: displayed on M13 phage, coat protein fusion and flanking residues not given here
notes: as for B8
B14: TN7 isolate A12 (peptide, not shown: large carriers)
peptide: FSCLWFPFCPD
modifications: disulfide 3-9 (inferred); also: displayed on M13 phage, coat protein fusion and flanking residues not given here
notes: as for B8
B15: TN7 isolate B12 (peptide, not shown: large carriers)
peptide: LFCHFWYNCDF
modifications: disulfide 3-9 (inferred); also: displayed on M13 phage, coat protein fusion and flanking residues not given here
notes: as for B8
B16: TN7 isolate D11 (peptide, not shown: large carriers)
peptide: LFCSFWYNCDA
modifications: disulfide 3-9 (inferred); also: displayed on M13 phage, coat protein fusion and flanking residues not given here
notes: as for B8
B17: TN7 isolate F12 (peptide, not shown: large carriers)
peptide: LFCSFWYNCDD
modifications: disulfide 3-9 (inferred); also: displayed on M13 phage, coat protein fusion and flanking residues not given here
notes: as for B8

What was measured:
[1] = target: parvovirus B19 capsid proteins VP1-VP2 (Human parvovirus B19, UniProt P07299); assay: Batch depletion of B19 capsid proteins from solution by immobilized peptide affinity media, supernatant ELISA; format: binding; settings: peptide immobilized on formyl 750-M resin; 1 hour at room temperature; compared with blank media; ELISA at 5-minute time point
Description: The two peptide ligands were immobilized on an aldehyde-functional methacrylate resin support (TosoHaas formyl 750-M; Montgomeryville, Pa.). The peptides were first weighed and dissolved into immobilization buffer (100 mM NaOAc, 150 mM NaCi, 0.1% Tween 20, pH 5.0). A sample of the dissolved peptides was taken for concentration analysis. The chromatography media was measured and washed twice with immobilization buffer. The media and peptide were mixed together and tumbled overnight at room temperature. After the reaction, the supernatant was analyzed for residual peptide and the resultant B19 affinity media was washed with deionized water, 1M NaCl, Tris buffer with 1M NaCl, and twice with PBS. The immobilization data are set forth below:
These parvovirus B19 affinity media were evaluated for the ability of the immobilization ligand to recognize and bind to parvovirus B19 capsid proteins VP1-VP2. Each of the prepared media was evaluated for its ability to deplete a solution of parvovirus B19 capsid proteins as compared to a blank control (media only). […] The capsid protein stock solution was prepared by diluting 30 μl of the purified capsid protein solution (Absorbance at 280 nm=2) with 320 μl of stabilizing buffer. […]
Each sample was analyzed with a standard ELISA for the presence or absence of B19 capsid proteins at ten-fold serial dilution into stabilizing buffer. […]

[2] = target: VP1-VP2 (Human parvovirus B19, UniProt P07299); assay: Relative binding ELISA, constant phage against decreasing amounts of VP1-VP2; settings: among the 18 selected phage isolates
Description: (§1) Based on the ELISA data and the sequence similarities within each library, the 18 isolates (Tables 1-3) were selected and evaluated further with respect to their binding characteristics to VP1-VP2. Relative binding of each isolate was studied by ELISA. Each selected phage isolate, held at a constant amount, was contacted with decreasing amounts per well of VP1-VP2, the amounts coating each dextrin well varying from 2 μl down to 0.001 μl. Bound phage were detected as described before using polyclonal anti-phage antibody. […] Using VP1-VP2 at 1:10 dilution as an arbitrary point, a value for the signal was interpolated, and the relative binding strengths are reflected in Tables 1-3, above.

[3] = target: T1, purified, recombinant parvovirus B19 capsid proteins VP1 and VP2 (VP1-VP2) (human parvovirus B19, UniProt P07299 1-781; P07299 1-554); assay: phage ELISA; VP1-VP2 coated on dextrin plates, HRP anti-M13 detection
T1 construct: Surrogate target: partially purified/purified recombinant VP1 + VP2 preparation; Made by methods of US 5,498,413 or WO 91/12269
Description: (§2) From convergent screens of phage display libraries, eluted phage were propagated and 376 phage isolates were selected randomly and individually tested for binding to VP1-VP2 by standard ELISA techniques, using a polyclonal anti-phage antibody to detect bound phage. Briefly, VP1-VP2 (2 μl per well) was coated on dextrin plates, blocked with BSA, and individual phage isolates were added to the wells (50 μl, 10⁹ pfu per well). After washing, bound phage were incubated with the detection anti-phage antibodies (100 μl per well HRP-conjugated anti-M13 antibody in PBS-Tween (Pharmacia Inc.)). Wild type phage, displaying no non-phage peptide, were employed as controls. The bound antibody was detected by adding 100 μl per well of two-component TMB (tetramethylbenzidine; Kirkegaard & Perry).

[4] = target: T1, purified, recombinant parvovirus B19 …; assay: phage ELISA, constant phage against decreasing VP1-VP2 coat; normalized signal interpolated at 1:10 dilution of VP1-VP2
Description: as §2, §1

Molecule | depletion / clearing of B19 capsid proteins from solution [1] | ranking of relative binding strength to VP1-VP2 [2] | ELISA signal [3] | relative binding [4]
AEGTGDFCWLWPAHSCHDPGPEGGGS (cysteine pairing not given here) [H03-TN09] | able to effectively bind parvovirus B19 capsid proteins and clear them from solution | – | – | –
AEGTGDFFCSFWHGGCDDDPGPEGGGS (cysteine pairing not given here) [A01-TN8] | able to effectively bind parvovirus B19 capsid proteins and clear them from solution | two highest-ranking isolates | – | –
B1 | – | – | 0.8 | 40
B2 | – | – | 0.7 | –
B3 | – | – | 0.7 | 36
B4 | – | – | 0.6 | 33
B5 | – | – | 0.5 | –
B6 | – | – | 0.8 | 85
B7 | – | – | 1.3 | 40
B8 | – | – | 0.7 | 27
B9 | – | – | 0.7 | 26
B10 | – | – | 1.3 | 30
B11 | – | – | 1.6 | 52
B12 | – | – | 0.5 | 31
B13 | – | – | 0.6 | –
B14 | – | – | 0.5 | 28
B15 | – | – | 0.7 | 29
B16 | – | – | 0.9 | 35
B17 | – | – | 0.9 | –
